According to the nanobody polyreactivity screen of Harvey et al. (2022):

Assay: yeast display, Sf9 membrane polyspecificity reagent, FACS + sequencing; frameworks hold sequencing errors
Outline: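 Synthetic nanobody libraries on Saccharomyces cerevisiae BJ5465 were galactose-induced for 36–48 hours, stained 1 hour at 4 °C with 10% biotinylated, detergent-solubilized Sf9 membrane reagent and enriched on streptavidin microbeads. FACS then separated cells into low and high (top ~1%) gates by anti-HA (expression) and streptavidin (reagent binding) fluorescence. Genes were colony-PCR amplified, MiSeq 2 × 250 sequenced and CDR-length filtered. A clone's polyreactivity label is that of its gate of origin.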

Sequence	polyreactivity (PSR sort gate)
QVQLVESGGGLVQAGGSLRLSCAASGFTFTGYAMGWYRQAPGKERELVAAISHDGGSTYYADSVKGRFTISRDNAKNTVYLQMNSLKPEDTAVYYCAAAFRAAGRTVRYYWGQGTQVTVSS	high polyreactivity
QVQLVESGGGLVQAGGSLRLICAASGFILNSYAMGWYRQAPGKERELVAAITRSGGNTFYADSVKGRFKISRDNAKNTVYLQLNSLKPDDTAVYYCNAYFTYWSQLYYWGQGTQVTVSS	high polyreactivity
QVQLVESGGGLVQAGGSLRLICAASGRTFRYYTMGWYRQAPGKEREFVAAISSTGGTYYADSVKGRFTNSRDNAKNTVYFQMNSLKPEDTAVYYWAAYRWGILSAYYYAWYGYWGQGTQVTVSS	low polyreactivity
QVQLVESGGGLVQAGGSLRLSCAASGRILRTYAMGWYRPAPGKERELVAAISRSGGSTYYADSVKGRFTISRDNAKNTVYLQMNSLKPEDTAVYYCNKAYGGRGYKYEYWGQGTQVTVSS	high polyreactivity
QVQLVESGGGLVQAGGSLRLSCAASGRIYSQYDMGWYRQAPGKESELVAAISGGVGTNYADSVKGRFTISRDNAKNTVYLQMNSLKPEDSAVYYCAADVGYLGRSRGYPSDDYDYWGQGTQVTVSS	low polyreactivity
QVQLVESGGGIVQAGGSLRLSCAASGRIFANYAKGWYRQAPGKERELVAAISRSGGSTSYADSVKGRFTISRDNAKYTVYLQMNSLKPEETAVSYCAVVSPRQSYYYWGQGTQVTVSS	high polyreactivity
QVQLEESGGGLVQAGGSLRLSCAASGFIYVKYAMGWYRQAPGKERELVAAITNGGSTYYADSVKGRFTISRDNAKYTVYLQMNSLKPEDTAVYYCAAQYHDWWRRLLYRSFRPFDYWGQGTQVTVSS	low polyreactivity
QVQLVESGGGIVQAGGSLRLSCAASGSIFVENAMGWTRQAPGKERELVAAISSDASTNYADSVKGRFTISRDNAKNTVFLQRNSLKPEDTAVYYCAAGYNQHGQYDYWGQGTQVTVSS	low polyreactivity
QVHLVESGGGLVQAGGSLRLSCAASGSTFGYYDMGWYRQAPGKERELVATISSGGGTNYADSVKGRFTISRDNAKNTVYLQMNSLKPEDTAVYYCAVTYGSKKARYSIYPRYGYWGQGTQVTVSS	low polyreactivity
QVQLVESGGGLVQAGGSLRLSCAASGRIFANNAMGWYRQAPGKEREFVAAINYSGTSTYYADSVKGRFTISRDNAKNTVYLQMNSLKPEDTAVYYCAADLPYYPYLYDYWGQGTQVTVSS	low polyreactivity
QDQLVESAAGLVQAGGSLRLSCAASGRTLYTNALGWYIQAPGKERELVAAISSDSSTKYADSVKGRFTISRDNAKNTVYLQMNSLKPEDTAVYYCARRGAFYYLYGHQYALYDYWGQGTQVTVSS	low polyreactivity
QVQLEESGGGLFQAGGSLRLSCAASGLNFGQNVMGWYRQAPGKERELLAAIRESGGRTYYADSVKGRFTISRDNAKNTFYIQMNSLNPEDTAVYYCRAYWRYSRYDYWGQGTQVTGSS	high polyreactivity
QVQLVESGGGLVQAGGSLRLSCAASGSTFLYYDMGWYRQAPGKERELVADITWSGSGTYYADSVKGRFTISRDNAKNTVYLQMNSLKPEDTAVYYCAADDTWRGDQYFYSYDYWGQGTQVTVSS	low polyreactivity
QVQLVESGGGLVQAGGSLRLSCASSGRIFRGYAKGGYRQAPGKERELVADISSGASTNYADSVKGRFTISRDNAKNSVYLQMNRLKPEDTAVYYCAASIYAALIGGPGYDYWGQGTQVTVSS	low polyreactivity
QVQLVESGGGLVHAGGTIEPYAMGWYRQAPGKERELVAPIRTSGGGTYYADSVKGRFTISRDNAKNTVYLQMYSLKPEDTAVYYCAAKSGPTLQRYYSYIFDYWGQGTQVTVSS	low polyreactivity
QVQLVETAGGLVQAGGSLRLSCAASGSTIRYNVMGWYRQAPGKERELVAAITINGGSTNYADSVKGRFTISRDNAKNTVYLQMNSLKPEDTAVYYCAAAKSYRSGSWYEYWGQGTQVTVSS	high polyreactivity
QVQLVESGGGLVQAGGSLRLSCAASGRIFYGYAMGWYRQAPGKERELVASISRRGSSTYYADSVKGRFTISRDNAKNTVYLQMNSLKPEDTAVYYCAKYTVQYAISHYDYWGQGTQVTVSS	high polyreactivity
QVQLEESGGGIVQAGGSLRLSCAASGSIIILYAMGWSRQAPGKEREFVAAITWSGGSTYYADSVKGRFTISRDNAKNTVYLQMNSLKPEDTAVYYCAARIRTVAHVDYDYWGQGTQVTVSS	high polyreactivity
QVQLVESGGGLVQAGGSLRLSCAASGSIFPFNAMGWYRQAPGKERELVAAISRRGTGTYYADSVKGRFTISRDNAKNTVYLQMNSLKPEDTAVYYCNAVVRAGHYDYWGQGTQVTVSS	high polyreactivity
QVQLVDSGGGLVQAGGSHRLSCAASGSIFPRYAMGWYRQAPGKERELVAAITRSGGSTYADSVKGRFTISRDNAKNTVYLQMNSLKPEDTAVYYCNGKVYPWGYYTSWRTVSPYDYWGQGTQVTVSS	high polyreactivity
QVQLVESGGGLVQAGGSLRLSCAASGRIFRYYAMGWYRQAPGKERELVAAIRGGGSTYYADSVKGRFTISRDNAKNTVYLQMNSLKPEDTAVYYCAAPLIISTLWYKRYDYWGQGTQVTVSS	high polyreactivity
QVQLVDSGGRLLQAGGSLRLSSAASGLIFKRYAMGWYIQAPGKERELDAAITSGSSTNYADSVKGRFTISRDNAKNTVYLQMNSLKPEDTAVYYCARDVYFSPYYRRSFQWRFDYWGQGTQVTVSS	high polyreactivity

Sequence	polyreactivity (PSR sort gate)
QVHLVESGGGLVQAGGSLRLSCAASGGTFDKNAMGWYSQAPGKESEFVAAITYGGGSTYYADSVKGRFTISRDNAKNTVYLQMTSLKPEDSAVYYCAVAIITYPYATGSSYDYWGQGTQVTVSS	low polyreactivity
QVQLVESGGGLVQAGGSLRLSCAASGFTFPVYVMGWYRQAPGKERELVSAISGGGGTYYADSVKGRFTISRDNAKNTVYLQMNSLKPEDTAVYYCAADYRTYVYVYGFRHFDYWGQGTQVTVSS	low polyreactivity
QVQLVESGGGLVQAGGSLRLSCDASGSIFRAYAMRWYRQAPGKERELVAAISSSSGRTYYADSVKGRFTISRDNAKTTVYLQLNSLKPEDTAVYYCAVTASTLVTSATYDYWGQGTQVTLSS	low polyreactivity
QVQLVESGGGLVQAGGSLRLSCAASGFTISRYAMGWYRQAPGKERELVASITYSGTRTYYADSVKGRFTISRDNAKNTVYLQMNSLKPEDTAVYYCAADDEYKQEAEMDSWGQGTQVTVSS	low polyreactivity
QVQLVESGGGLVQAGGSLRLSCAASGRILDYNAMGWYRQAPGKERELVAAITWRGGSTYYADSVKGRFTISRDNAKNTVYLQMNSLKPEDTAVYYCNARWSKTAHTRFGYWGQGTQVTVSS	low polyreactivity
KCQLVDSGGGLVQAGGSLRLSCAASGSIFYVKAMGWYRQAPGKEREFVADITYTGGSTYYADSVNGRFTISRDNAKNTVYLQMNSLKPEDTAVYYCAADLYTTYVAIYDYWGQGTQVTVSS	low polyreactivity
QVLLVESGGGLVQAGGSLRLSCAASGRTLRGYAMGWYRQAPGKERELVAAITWSGGSTYYADSVKGRFTISRDHAKNTVYLQMNSLKPEDTAVYYCNARSYPDLYDYWGQGTQVTVSS	low polyreactivity
QVQLVESGGGLVQAGGSLRLSCAASGRTFNSYAMGWYRQAPGKERELVASISSGGSTYYADSVKGRFTLSRDNAKHTDYLQMNSLKPEDTAVYYCAAKSVAYYSYFRRDYWGQGTQVTVSS	low polyreactivity
QVQLVESGGGLVQAGGSLRLSCAASGRTFIVYAMGWYRQAPGKERELVAGITRGSTNYADSVKGRFTISRDNAKNTVYLQMNSLKPEDTAVYYCAARSSRRGPISEGDYWGQGTQVTVSS	high polyreactivity
QVQLVESGAGLVQAGGSLRLSCAASGIIFSGYAMGWYTQAPGKERELVAAISYSGASTYYADSVKGRFTISRDNAKNTVYLQMNSLKPEDTAVYYCAADRRYARYWNGWRYNYWGQGTQVTVSS	high polyreactivity
QVQLVESGGGLVQAGGSLRLSCAASGRTFYNYAMVWYRQAPGKERELVAAIDWGSDSTYYADSVKGRFTISRDNAKNTVYLQMNSLKPEDTAVYYCAAYLVSVYSRTYDYWGQGTQVTVSS	low polyreactivity
QDQLVESGGGLVQAGGSLRLSCAASGFTFTRYAMGWYRQAPGKERELVAAITRRSGRTYYADSVKGRFTISRDNAKNTVYLQMNSLKPEDTAVYYCNAVRTTPSGSLPLAYDYWGQGTQVTVSS	high polyreactivity
QVQLVESGGGLVQAGRSLRISCAASGSIFVNNAMGWYRQAPGKERELVAAISLSGGSTYYADSVTGRFTISRDTAKNTVYLQMTSLKPEDTAVYYCATRRSHYGKYDYWGQGTQVTVSS	high polyreactivity
QVHLVESGGGLVQAGGSLRLSCAASGRTFRRYAMGWYRQAPGKERELVAGISRSGVSTYYADSVKGRFTISRDNAKNTVYLQMNSLKPEDTAVYYCATRYVPTLRSSGDYCGQGTQVTVSS	high polyreactivity
QVQLVESGVGLVQAGGILRLSCAASGFIFALNAMGWYRQAPGKERELVATIDSTSGSTYYADSVKGRFTISRDNAKNTVYLEMNSLKPEDTAVYYCAVVHAQSAPMDYWGQGTQVTVSS	low polyreactivity
QVQLVESGGGLVQAGGSLRLSCAASGRTFGVNAMGWYRQAPGKERELVAVISRSTGSTYYADSVKGRFTISRDNAKNTVYLQMNSLKPEDTAVYYCAAGFWVRGFRRFDYWGQGTQVTVSS	high polyreactivity
QVQLVESGGGLVQAGGSLRLSCAASGRIFEGYAMGWYRQAPGKERELVAAITGSGGGTYYADSVKGRFTISRDNAKNTVYLQMNSLKPEDTAVYYCATAYSAYQHPYGYWGKGTQVTVSS	low polyreactivity
QVQLVESGGGLVQAGGSLRLSCAASGNIFADYVMGWYRQAPGKERELVAAIDKSGGRTYYADSVKGRFTISRDNAKNTVYLQMNSLKPEDTAVYYCSAYDRYRRMDYWGQGTQVTVSS	high polyreactivity
QVQLVESGGGLVQAGGSLRLSCAASGYTFRRYAMGWYRQAPGKERELVAGITRTGNTNYADSVKGRFTISRDNAKNTVYLQMNSLKPEDTAVYYCARDLGGYKRLYDYWGQGTQVTVSS	high polyreactivity
QVQLVESGGGLVQAGGSLRLSCAASGFTFYGYAMGWYRPAPGKERELVAAISWSGGSTFYADSVKGRFTISRDNAKNTVYLQMNSQKAEDTAVDYCNAKVYPWGYYTSWRTVSPYDYWGQGTQVSVSS	high polyreactivity
QVQLVESGGGLVQAGGSLRLSCAASGRTFAIYTRGWYRQAPGKERELVASITSSGASTYYADSVKGRFTISRDNAKNTVYLQMNSLKPEYTAVYYCAAGWYQGFDYWGQGTQVTVSS	high polyreactivity
